Data as given in publication PMC7374964 (BMC Biology, 2020).

Tests used:
Conditions in all cases: one partner purified
[1] = molecular target: T1, HIV-1 JRFL Env on free pseudovirus particles (HIV-1 JRFL, UniProt Q75760, strain); experiment: fluorescence correlation spectroscopy (FCS)
T1 construct: copies: 3 + 3

[2] = molecular target: T2, HIV-1 BaL Env on free pseudovirus particles (HIV-1 BaL (Env clone not named), UniProt Q2MKA8, strain); experiment: fluorescence correlation spectroscopy (FCS)
T2 construct: copies: 3 + 3

[3] = molecular target: T3, HIV-1 BaL Env on pseudovirus particles treated with the CD4 mimetic peptide M48U1 (HIV-1 BaL (Env clone not named), UniProt Q2MKA8, strain); experiment: fluorescence correlation spectroscopy (FCS)
T3 construct: source: HIV-1 BaL pseudoviruses [72] treated for 90 min at 37 °C with 200 ug/ml of M48U1; copies: 3 + 3 +

[4] = molecular target: T4, HIV-1 JRFL Env on pseudovirus particles treated with the CD4 mimetic peptide M48U1 (HIV-1 JRFL, UniProt Q75760, strain); experiment: fluorescence correlation spectroscopy (FCS)
T4 construct: copies: 3 + 3 +

[5] = molecular target: T5, HIV-1 ADA Env on CEM-NKR cells infected with the Nef- and Vpu-defective virus (NL4.3 GFP ADA/Nef-Vpu-), with … (HIV-1 ADA (Env clone not named); Homo …, UniProt Q6TAN8;P01730, strain); experiment: flow cytometry on cells
T5 construct: also called ADA/N-U- infected cells; pNL43/ADA/N-U- infected CEM-NKR target cells; copies: 3 + 3 +

Measured: binding result

B1: mAb X5 (antibody, V domains shown)
VH: VQLLEQSGAEVKKPGSSVQVSCKASGGTFSMYGFNWVRQAPGHGLEWMGGIIPIFGTSNYAQKFRGRVTFTADQATSTAYMELTNLRSDDTAVYYCARDFGPDWEDGDSYDGSGRGFFDFWGQGTLVTVSS
VL: ELVLTQSPGTLSLSAGERATLSCRASQSVSSGSLAWYQQKPGQAPRLLIYGASTRATGIPDRFSGSGSGTDFTLTIGRLEPEDLAVYYCQQYGTSPYTFGQGTKLEIK
notes: source: generated in house [15]
binds: all assays above
